Test results taken from US20210214430A1 (Regeneron, published 2021).

B4: recombinant VEGF MiniTrap (dimer) MT5 (receptor)
chain: SDTGRPFVEMYSEIPEIIHMTEGRELVIPCRVTSPNITVTLKKFPLDTLIPDGKRIIWDSRKGFIISNATYKEIGLLTCEATVNGHLYKTNYLTHRQTNTIIDVVLSPSHGIELSVGEKLVLNCTARTELNVGIDFNWEYPSSKHQHKKLVNRDLKTQSGSEMKKFLSTLTIDGVTRSDQGLYTCAASSGLMTKKNSTFVRVHEKDKTHTCPPCPAPELLG
notes: also called VEGF MiniTrap 5

Key:
[1] = target: B4; assay: affinity chromatography on immobilized mAb1, low-pH eluate on non-reducing SDS-PAGE
Description: (§1) The column was activated by washing the columns with 6 column volumes (CV) of 1 mM ice-cold hydrochloric acid at a flow rate not exceeding 1 mL/min. […] The columns were washed with 18 column volumes of 0.5 M sodium acetate, 0.5 M NaCl, pH 4.0 and the open sites were blocked with 18 column volumes of 0.5 M Tris-HCl, 0.5 M NaCl pH 8.3 (the wash was carried out in the following order: 6 column volumes of 0.5 M Tris-HCl, 0.5 M NaCl, pH 8.3; 6 column volumes of 0.5 M sodium acetate (sodium acetate: JT Baker, Cat #3470-01), 0.5 M NaCl, pH 4.0; 6 column volumes of 0.5 M Tris, pH 8.3; incubate the column for 30 minutes at room temperature; 6 column volumes of 0.5 M sodium acetate buffer, 0.5 M NaCl pH 4.0; 6 column volumes of 0.5 M Tris-HCl, 0.5 NaCl, pH 8.3 and 6 column volumes of 0.5 M sodium acetate buffer, 0.5 M NaCl pH 4.0). The columns were stored in DPBS, pH 7.5. The five columns evaluated are designated as column 1 (comprising VEGF₁₆₅), column 2 (comprising mAb1), column 3 (comprising mAb2), column 4 (comprising mAb3) and column 5 (comprising mAb4).
(§2) SDS-PAGE analysis of the eluted fractions from the three columns (column 1, column 2, and column 3) was performed. […]

[2] = target: B4; assay: affinity chromatography, antibody coupled to HiTrap NHS-activated column (column 4)
[3] = target: B4; assay: affinity chromatography on immobilized mAb2, low-pH eluate on non-reducing SDS-PAGE
Description: as §1, §2

VEGF165 = target: T1, VEGF165 (human, UniProt P15692 207-395); assay: SPR, Biacore T200, 25 C; MT5 captured on amine-coupled mAb1, VEGF165 injected at 0.03-2 nM; 1:1 Langmuir fit; conditions: loading solution before affinity chromatography
T1 construct: also called hVEGF165
Description: All binding studies were performed in 10 mM HEPES, 150 mM NaCl, 3 mM EDTA, and 0.05% v/v Surfactant Tween-20, pH 7.4 (HBS-ET) running buffer at 25° C. The Biacore sensor surface was first derivitized by amine coupling with a mAb 1 to capture MT5.
Briefly, the eluates from the columns and loading solution were diluted into an HBS-EP (Biacore) buffer and injected across the immobilized protein matrices at a capture level of ˜70 RUs. The VEGF₁₆₅ was then injected at a flow rate of 50 μL/min. Equivalent concentration of analyte was simultaneously injected over an untreated reference surface to serve as blank sensorgrams for subtraction of bulk refractive index background. The sensor chip surface was regenerated between cycles with two 5-min injections of 10 mM Glycine, at 25 μL/min. The resultant experimental binding sensorgrams were then evaluated using the BIA evaluation 4.0.1 software to determine kinetic rate parameters. Datasets for each sample were fit to the 1:1 Langmuir model. For these studies, binding and dissociation data were analyzed under the Global Fit Analysis protocol while selecting fit locally for maximum analyte binding capacity (RU) or Rmax attribute. In this case, the software calculated a single dissociation constant (kd), association constant (ka), and affinity constant (Kd). The equilibrium dissociation constant is KD=kd/ka. […] The dissociative half-lives (t½) were calculated from the kinetic rate constants as: t_{1/2}=ln(2)/60*[…]. Binding kinetic parameters for MT5 to VEGF₁₆₅ obtained from before and after the affinity chromatography production at 25° C. are shown in Table 7-6.

T1 sequence (P15692 other isoform, or with tags, fused parts or gaps limits assumed): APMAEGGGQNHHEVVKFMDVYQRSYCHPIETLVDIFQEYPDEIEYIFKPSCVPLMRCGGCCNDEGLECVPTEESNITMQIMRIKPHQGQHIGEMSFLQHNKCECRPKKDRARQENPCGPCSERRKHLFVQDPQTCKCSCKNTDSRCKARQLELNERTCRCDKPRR

B1: mAb1 (a mouse anti-VEGFR1 mAb human IgG1) (antibody)
heavy: not shown
light: DIQMTQSPSSLSASLGGKVTITCTTSQDSNNYIAWYQHKPGKGPRLLIHYASTLQPGIPSRFSGSGSGRDYSFSISNLEPEDIATYFCLQYDYLWTFGGGTKLELKRTVAAPSVFIFPPSDEQLKSGTASVVCLLNNFYPREAKVQWKVDNALQSGNSQESVTEQDSKDSTYSLSSTLTLSKADYEKHKVYACEVTHQGLSSPVTKSFNRGEC
notes: Also amine-coupled to the Biacore chip to capture MT5
binding result [1]: binds

B2: mAb3 (a mouse anti-VEGFR1 mAb mouse IgG1) (antibody)
heavy: EVQLVESGGDLVKPGGSLKLSCAASGFTFSSSGMSWVRQTPDKRLEWVATITSGGSYTYYPDSVKGRFTISRDNAKNTLYLQMSSLKSEDTAMFYCARLGNYGGYYAMDYWGQGTSVTVSSAKTTPPSVYPLAPGSAAQTNSMVTLGCLVKGYFPEPVTVTWNSGSLSSGVHTFPAVLQSDLYTLSSSVTVPSSTWPSETVTCNVAHPASSTKVDKKIVPRDCGCKPCICTVPEVSSVFIFPPKPKDVLTITLTPKVTCVVVDISKDDPEVQFSWFVDDVEVHTAQTQPREEQFNSTFRSVSELPIMHQDWLNGKEFKCRVNSAAFPAPIEKTISKTKGRPKAPQVYTIPPPKEQMAKDKVSLTCMITDFFPEDITVEWQWNGQPAENYKNTQPIMDTDGSYFVYSKLNVQKSNWEAGNTFTCSVLHEGLHNHHTEKSLSHSPGK
light: DIQMTQSPSSLSASLGGKVTITCTTSQDSNNYIAWYQHKPGKGPRLLIHYASTLQPGIPSRFSGSGSGRDYSFSISNLEPEDIATYFCLQYDYLWTFGGGTKLELKRADAAPTVSIFPPSSEQLTSGGASVVCFLNNFYPKDINVKWKIDGSERQNGVLNSWTDQDSKDSTYSMSSTLTLTKDEYERHNSYTCEATHKTSTSPIVKSFNRGEC
notes: also called column 4
binding result [2]: binds

B3: mAb2 (a mouse anti-VEGFR1 mAb human IgG1) (antibody, V domains shown)
VH: EVQLVESGGDLVKPGGSLKLSCAASGFTFSDSGMSWVRQTPDKRLEWVATISSGGGYTYYSDSVEGRFTISRDNANNTLFLQMSSLKSEDTAMFYCARLGNYGGYYGMDYWGQGTSVTVSS
VL: DIQMTQSPSSLSASLGGKVTITCKTSQDSNKYIAWYQHKPGKGPRLLIHYTSTLQPGIPSRFSGSGSGRDYSFSISNLEPEDIATYYCLQYDNLWTFGGGTKLEIKR
notes: also called column 3
binding result [3]: binds

B4
Kd (VEGF165): 1.84 pM | koff (VEGF165): 1.74e-05 s⁻¹ | kon (VEGF165): 9.44e+06 M⁻¹ s⁻¹ | t1/2 (dissociative half-life) (VEGF165): 664 min
